Results on one substance are retold here after patent US20200069775A1, “BRAIN OSTEOCALCIN RECEPTOR AND COGNITIVE DISORDERS” (The Trustees of Columbia University in the City of New York, priority 2017, published 2020).

The target in the assay is T1, Gpr158 (Mus musculus, UniProt Q8C419).
T1 sequence (Q8C419 25-1200): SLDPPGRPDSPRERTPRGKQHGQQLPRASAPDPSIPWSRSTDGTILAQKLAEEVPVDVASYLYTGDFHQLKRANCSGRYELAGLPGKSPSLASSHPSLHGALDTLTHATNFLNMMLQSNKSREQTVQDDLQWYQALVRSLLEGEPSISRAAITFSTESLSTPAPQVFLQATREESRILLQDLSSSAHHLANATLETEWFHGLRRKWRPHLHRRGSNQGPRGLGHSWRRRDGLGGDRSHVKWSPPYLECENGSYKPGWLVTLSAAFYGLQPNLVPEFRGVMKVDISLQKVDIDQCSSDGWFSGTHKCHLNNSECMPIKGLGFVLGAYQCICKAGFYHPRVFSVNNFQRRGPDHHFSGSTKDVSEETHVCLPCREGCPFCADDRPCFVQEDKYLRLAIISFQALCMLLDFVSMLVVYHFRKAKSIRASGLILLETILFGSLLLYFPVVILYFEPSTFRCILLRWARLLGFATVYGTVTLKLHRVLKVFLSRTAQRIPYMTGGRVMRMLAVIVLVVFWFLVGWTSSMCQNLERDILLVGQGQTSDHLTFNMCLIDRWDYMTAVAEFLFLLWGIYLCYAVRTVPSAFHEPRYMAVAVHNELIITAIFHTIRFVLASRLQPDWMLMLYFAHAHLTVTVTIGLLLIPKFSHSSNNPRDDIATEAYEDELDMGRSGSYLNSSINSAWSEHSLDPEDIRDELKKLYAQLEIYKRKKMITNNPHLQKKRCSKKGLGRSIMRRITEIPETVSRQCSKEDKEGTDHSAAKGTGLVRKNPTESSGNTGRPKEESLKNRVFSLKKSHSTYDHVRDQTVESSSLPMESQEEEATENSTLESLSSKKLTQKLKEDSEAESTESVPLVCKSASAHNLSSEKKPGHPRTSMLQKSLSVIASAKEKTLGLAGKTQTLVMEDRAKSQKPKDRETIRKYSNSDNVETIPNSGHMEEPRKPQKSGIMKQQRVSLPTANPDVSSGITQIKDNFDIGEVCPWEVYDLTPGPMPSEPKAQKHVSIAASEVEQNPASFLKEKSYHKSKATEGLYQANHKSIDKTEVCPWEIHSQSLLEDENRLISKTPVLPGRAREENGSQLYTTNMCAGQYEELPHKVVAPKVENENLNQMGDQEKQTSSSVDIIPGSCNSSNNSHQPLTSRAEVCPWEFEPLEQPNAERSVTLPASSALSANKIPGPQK
Kind of assay: Bdnf expression (qPCR) in WT and Gpr158−/− hippocampal neurons. The note with it: WT vs Gpr158−/− hippocampal neurons, 4 hours. It is filed as cell-based. More on the design: visually identified pyramidal neurons in the CA3 area of the hippocampus; from tissue; host or cells: coronal hippocampal slices of 3-4 week old male WT and Gpr158-/- mice. The protocol: FIG. 15. Function analysis of Osteocalcin signaling through Gpr158. (Panel a) IP1 accumulation in WT and Gpr158−/− hippocampal neurons (DIV 15) treated with either vehicle or osteocalcin for 1 hour. Glutamate was used as a positive control. (Panel b) Expression (qPCR) of Th and Bdnf in the midbrain of 6 month-old Gpr158+/− and WT littermates. (Panel c) Expression (qPCR) of Bdnf in WT and Gpr158−/− hippocampal neurons (DIV 15) treated with either vehicle or osteocalcin for 4 hours. (Panel d) Osteocalcin's effect on spontaneous action potential (AP) frequency in CA3 pyramidal neurons in WT (4 of 4 cells) and Gpr158−/− mice. The bars above the recording traces indicate the application of osteocalcin. […] Number of entries and time spent (s) in the open arms were scored. […] Time spent in the lit compartment and open arms was measured. […] Total ambulation (cm) and time spent in the center of the arena (s) were measured. […] Preference index (time spent with novel object/total exploration time) was measured. […] Preference index (time spent with novel object/total exploration time) was measured. […] Percent freezing 24 hours after training was measured. […]
RNA was isolated from brain tissue using TRIZOL (Invitrogen). cDNA synthesis was performed following standard protocol, q-PCR analyses were done using specific quantitative PCR primers (sequences available upon request), and expressed relative to Gapdh levels. […]

Turning to “osteocalcin: Recombinant osteocalcin bacterially produced, cleaved from the GST subunit; completely undercarboxylated at all three sites; full-length mouse osteocalcin (YLGASVPSPDPLEPTREQCELNPACDELSDQYGLKTAYKRIYGITI)”, the Bdnf expression result is reported as “increased Bdnf expression in WT significantly more than in Gpr158−/− hippocampal neurons”.
